Experimental data from publication PMC6255209 (Proceedings of the National Academy of Sciences of the …, 2018).
Blank lines part the entries; values can stand above or below the molecule they belong to.

Legend:
YFP-β3 [1] = target: YFP-β3 (UniProt P54287); assay: FRET or BRET
YFP-β3 [2] = target: YFP-β3 (UniProt P54287 1-484); assay: FRET or BRET
Chain of YFP-β3 (UniProt P54287 1-484) (P54287 whole entry): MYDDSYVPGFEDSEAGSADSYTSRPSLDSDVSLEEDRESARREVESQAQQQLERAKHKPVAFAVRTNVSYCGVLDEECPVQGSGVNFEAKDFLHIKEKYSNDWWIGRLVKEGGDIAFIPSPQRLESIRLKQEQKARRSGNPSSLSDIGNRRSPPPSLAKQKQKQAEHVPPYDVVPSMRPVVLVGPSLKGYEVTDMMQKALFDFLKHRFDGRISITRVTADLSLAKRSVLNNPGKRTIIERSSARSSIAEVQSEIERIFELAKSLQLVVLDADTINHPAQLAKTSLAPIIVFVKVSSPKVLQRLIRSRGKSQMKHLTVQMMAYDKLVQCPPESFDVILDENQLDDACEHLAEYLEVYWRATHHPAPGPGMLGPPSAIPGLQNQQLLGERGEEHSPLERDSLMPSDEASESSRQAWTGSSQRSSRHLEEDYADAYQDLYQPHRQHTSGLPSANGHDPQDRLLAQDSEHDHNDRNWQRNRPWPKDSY

Chain of YFP-β3 (UniProt P54287) (P54287 whole entry): as above

FRET efficiency (YFP-β3 [1]): 0.123
Molecule: CFP-Rad (from UniProt P55042 1-308) (natural protein)

fold decrease in affinity compared with CFP-Rad (YFP-β3 [1]): 8 fold
Molecule: CFP-Rad[R208A/L235A] (from UniProt P55042 1-308) (natural protein)

fold decrease in affinity compared with WT Rem (YFP-β3 [2]): 5 fold
B1: CFP-Rem[R200A/L227A] (natural protein, UniProt O35929 1-297, looked up)
chain: MTLNTQQEAKTTLRRRASTPLPLSSRGHQPGRLCTAPSAPSQHPRLGQSVSLNPPVRKPSPAQDGWSSESSDSEGSWEALYRVVLLGDPGVGKTSLASLFAEKQDRDPHEQLGGVYERTLSVDGEDTTLVVMDTWEAEKLDESWCQESCLQAGSAYVIVYSIADRSSFESASELRIQLRRTHQANHVPIILVGNKADLAACREVSVEEGRACAVVFDCKFIETSATAQHNVTELFEGVVRQLRLRRQDNAAPETPSPRRRASLGQRARRFLARLTARSARRRALKARSKSCHNLAVL
